# Oligonucleotides are written 5' to 3', each unit as a sugar letter and its base; * is a phosphorothioate linkage, no mark a phosphodiester; rarer units and linkages stand in square brackets, end groups in braces. Plain capitals give the bases only. d = 2'-deoxy (DNA); {P} = phosphate
# Experiments:
# Type in all cases: cell-based
# [1] = tested on: HEK293 cells stably expressing eBFP; assay: HDR assay, conversion of eBFP to GFP by flow cytometry; conditions: oligonucleotide length and modification, sequential delivery, 1 nt substitution, 48 hours
# Text: To generate a HEK293FT stable cell line expressing eBFP, an eBFP ORF was synthesized by GENEART® custom DNA synthesis (Thermo Fisher Scientific) and then cloned into pDONAR221 vector. Using GATEWAY® recombination technology (Thermo Fisher Scientific), the eBFP ORF was transferred to pLenti6.2-DEST Gateway Vector and then verified by sequencing. Lentivirus was generated using VIRAPOWER® kit as described in the manual. To generate stable cell line, HEK293FT cells were transduced with 0.1 MOI of Lentivirus expressing eBFP. Three days post transduction cells were selected on 5 μg/mL Blasticidine antibiotics for 2 weeks. Cells expressing eBFP were then collected and diluted to […] in complete medium and plated into 96 well plates for single cell clone. After 2 weeks clones were isolated and verified for eBFP expression by flow cytometer. In a reporter assay using a stable eBFP-expressing HEK293 cell line, the substitution of C to T in eBFP gene converts His67 to Tyr67, generating a GFP variant (Table 5).
# (§1) To create homologous recombination (HR) assays, a series of gRNAs flanking the insertion site within the EmGFP gene were designed and synthesized (Table 4). Each individual gRNA was combined with GENEART™ […]™ Cas9 Nuclease to form the Cas9 protein/gRNA ribonucleoprotein complexes (Cas9 RNPs). The Cas9 RNPs were then used to transfect cells via NEON® electroporation. The genomic cleavage efficiency was then evaluated using the GENEART® Genomic Cleavage Detection kit at 48 hours post transfection. The gRNAs with highest editing efficiencies and also in close proximity to the insertion site were selected for the subsequent HR assays. For donor design of a single-stranded oligonucleotide, typically the mutation site was positioned at the center flanked by 30 to 50 nucleotides on each side. For asymmetric donor design, 30 nucleotides were placed on either the left or right arm and then 50 or 67 nucleotides on the right or left arm respectively, in both PAM and non-PAM strands. For design of a dsDNA oligonucleotide with single-stranded overhangs, the insertion element was overlapped in the center flanked by various lengths of ssDNA oligonucleotide on each side. By annealing two single-stranded oligonucleotides at 95° C. for 3 minutes, dsDNA donor molecules with either a 5′ protrusion or a 3′ protrusion were generated. To measure homologous recombination efficiency, the donor DNA was either co-transfected with Cas9 RNPs or delivered sequentially into cells via electroporation. At 48 hours post transfection, the gain of EmGFP function in reporter cell lines was determined by flow cytometric analysis with an Attune® NxT Acoustic Focusing Cytometer (Thermo Fisher Scientific). Alternatively, the genomic loci were PCR-amplified using the corresponding primers and then subjected to GENEART® Genomic Cleavage Detection assay or restriction digestion. The resulting PCR products were also subjected to TOPO cloning. Typically, 96 colonies were randomly picked for sequencing. The sequencing data were analyzed using VECTOR NTI ADVANCE® 11.5 software (Thermo Fisher Scientific).
# For each homologous recombination assay, 1.5 μg of Cas9 protein and 360 ng of gRNA were added to Resuspension Buffer R to a final volume of 7 μl, but limiting the total volume of Cas9 protein plus gRNA to less than 1 μl. The gRNA could be diluted in Buffer R if the concentration was too high. Upon mixing, the sample was incubated at room temperature for 5 to 10 minutes to form Cas9 RNPs. Meanwhile, […]™ HEK293 cells expressing either eBFP or disrupted EmGFP were detached from culture flask with TRYPLE™ Express Enzyme and then counted. Aliquots of 1×10^6 cells were washed once with DPBS without Ca^2+ and Mg^2+ and the cell pellets were resuspended in 50 μl of Resuspension Buffer R. A 5 μl aliquot of cell suspension was mixed with 7 μl of Cas9 RNPs. […] The electroporated cells were transferred to 300 μl of […]. […]
# [2] = tested on: EmGFP gene in GRIPTITE HEK293 cells; assay: Sequencing analysis of FLAG tag/EcoRI insertion with +5 gRNA; conditions: sequential delivery, 48 hours
# Procedure: In order to understand the polarity of dsDNA donor with single stranded overhangs, we inserted a FLAG epitope tag along with an EcoRI site into a separate locus where the +5 gRNA was targeting the bottom strand of EmGFP gene (see Table 21). The Cas9 RNPs were first delivered into […]™ HEK293 cells, followed by the delivery of ssDNA donor, or short dsDNA donors with 32-base single stranded overhangs at either 5′ or 3′ end. Samples in the absence of gRNA served as controls. At 48 hours post transfection, the genomic loci were amplified by PCR. The resulting PCR fragments were subjected to restriction digestion with EcoRI (data not shown) or subjected to sequencing analysis. The integration efficiency of FLAG epitope tag along with an EcoRI was approximately 34% using dsDNA donor with 3′ overhangs and 20% using ssDNA donor.
# [3] = tested on: eBFP locus in HEK293 cells expressing eBFP; assay: EcoRI restriction digestion of PCR-amplified eBFP locus (FLAG tag/EcoRI insertion); conditions: FIG. 11B, length of 3′ overhang, 48 hours
# Text: FIG. 11. Insertion of a FLAG tag along with an EcoRI site using dsDNA donor with single-stranded overhangs. (A) Various donor DNA molecules containing a 30-base FLAG tag along with an EcoRI site were designed and synthesized, including single-stranded DNA donor (ssDNA), blunt-end dsDNA donor (blunt), dsDNA donor with 5′ overhang (5′), dsDNA donor with 3′ overhang (3′). The length of overhangs varied from 6 nucleotides (6), 15 nucleotides (15) to 30 nucleotides (30). The 3′ and 5′ ends of the oligonucleotides harbored two consecutive phosphorothioate-modified bases (Table 4). The short dsDNA donors with and without overhangs were prepared by annealing two short DNA oligonucleotides. […] At 48 hours post transfection, the eBFP locus was PCR-amplified. The resulting PCR fragments were analyzed by the genomic cleavage and detection assays to determine the percentage of Indel or subjected to restriction digestion with EcoRI to determine the percentage of digestion. (B) Length of 3′ overhang. […] Alternatively, a dsDNA donor with 30-base 3′ overhang but without phosphorothioate modification (30-3′n) was used. The percentage of digestion with EcoRI was determined at 48 hours post transfection. (C) Dose effect. […] The eBFP loci were PCR-amplified. The resulting PCR fragments were analyzed by EcoRI digest. (D) Sequencing verification. The PCR fragments were cloned into E. coli and 192 clones were randomly picked for sequencing. The relative percentage of wild type (wt), NHEJ, and HDR clones derived from either ssDNA donor (ssDNA) or dsDNA with 3′ overhangs (3′ overhang) was plotted. The white rectangles represented the population of clones that contained the insert but with a point mutation. Examples of edited clones were shown in (E) (not representing the actual percentages of NHEJ and HDR). The underlined sequences represented the FLAG tag along with an RI site. FIG. 11 discloses SEQ ID NOs: 15-24, respectively, from top to bottom.
# as §1, with “The sequencing data were analyzed using VECTOR NTI ADVANCE® 11.5 software (Thermo Fisher Scientific).” left out
molecule,measurement,setting,value
"50: unmodified 50-mer ssDNA, BFP point mutation, SEQ ID 54 (DNA CCCACCCTCGTGACCACCCTGACCTACGGCGTGCAGTGCTTCAGCCGCTA; DNA, backbone not given here) [compound 50]",Avg (% GFP+ cells),[1],14.4%
"32-5′: short dsDNA donor with 32-base 5′ overhangs, EmGFP, SEQ ID 98 and 99 (nucleic acid, DNA, backbone and methylation of C not given here; further chemistry not fully specified) chain 1: GCCCGTGCCCTGGCCCACCCTCGTGACCACCTGACTACAAAGACGATGACGACAAGAATTCTA chain 2: GTCGGGGTAGCGGGCGAAGCACTGCACGCCGTAGAATTCTTGTCGTCATCGTCTTTGTAGTC",Relative % HDR (integration of FLAG epitope tag along with EcoRI),[2],0.0%
same,Relative % NHEJ,[2],78.0%
same,Relative % wt,[2],22.0%
same,Relative % HDR (integration of FLAG epitope tag along with EcoRI),[2]; listed as dsDNA donor with 5′ overhangs,barely detectable integration product
"80: unmodified 80-mer ssDNA, BFP point mutation, SEQ ID 48 (nucleic acid, DNA, backbone not given here) DNA: GCTGCCCGTGCCCTGGCCCACCCTCGTGACCACCCTGACCTACGGCGTGCAGTGCTTCAGCCGCTACCCCGACCACATGA",Avg (% GFP+ cells),[1],38.4%
"PS90: phosphorothioate 90-mer ssDNA, BFP point mutation, SEQ ID 47 (nucleic acid, 5' phosphate, modified ends, chemistry not fully specified) DNA: GCAAGCTGCCCGTGCCCTGGCCCACCCTCGTGACCACCCTGACCTACGGCGTGCAGTGCTTCAGCCGCTACCCCGACCACATGAAGCAGC",Avg (% GFP+ cells),[1],38.8%
"90: unmodified 90-mer ssDNA, BFP point mutation, SEQ ID 46 (nucleic acid, unmodified DNA) DNA: GCAAGCTGCCCGTGCCCTGGCCCACCCTCGTGACCACCCTGACCTACGGCGTGCAGTGCTTCAGCCGCTACCCCGACCACATGAAGCAGC",Avg (% GFP+ cells),[1],32.8%
"PS70: phosphorothioate 70-mer ssDNA, BFP point mutation, SEQ ID 51 (nucleic acid) DNA: {P}-dC*dC*dCdGdTdGdCdCdCdTdGdGdCdCdCdAdCdCdCdTdCdGdTdGdAdCdCdAdCdCdCdTdGdAdCdCdTdAdCdGdGdCdGdTdGdCdAdGdTdGdCdTdTdCdAdGdCdCdGdCdTdAdCdCdCdCdGdA*dC*dC",Avg (% GFP+ cells),[1],39.2%
"32-3′: short dsDNA donor with 32-base 3′ overhangs, EmGFP, SEQ ID 100 and 101 (nucleic acid, DNA, backbone and methylation of C not given here; further chemistry not fully specified) chain 1: AGAATTCTTGTCGTCATCGTCTTTGTAGTCAGGTGGTCACGAGGGTGGGCCAGGGCACGGGC chain 2: GACTACAAAGACGATGACGACAAGAATTCTACGGCGTGCAGTGCTTCGCCCGCTACCCCGAC",Relative % HDR (integration of FLAG epitope tag along with EcoRI),[2],34.2%
same,Relative % NHEJ,[2],54.6%
same,Relative % wt,[2],11.1%
same,Relative % HDR (integration of FLAG epitope tag along with EcoRI),[2]; listed as dsDNA donor with 3′ overhangs,approximately 34%
"70: unmodified 70-mer ssDNA, BFP point mutation, SEQ ID 50 (nucleic acid, DNA, backbone not given here) DNA: CCCGTGCCCTGGCCCACCCTCGTGACCACCCTGACCTACGGCGTGCAGTGCTTCAGCCGCTACCCCGACC",Avg (% GFP+ cells),[1],34.7%
"45-3′: dsDNA donor with 45-base 3′ overhangs, annealed SEQ ID 95 and 96 (nucleic acid, chemistry not fully specified) chain 1: GACTACAAAGACGATGACGACAAGAATTCTTACGGCGTGCAGTGCTTCAGCCGCTACCCCGACCACATGAAGCAGCAC chain 2: AAGAATTCTTGTCGTCATCGTCTTTGTAGTCGGTCAGGGTGGTCACGAGGGTGGGCCAGGGCACGGGCAGCTTGCCGG",Avg (% digestion),[3],37.0%
"PS100: phosphorothioate 100-mer ssDNA, BFP point mutation, SEQ ID 45 (nucleic acid) DNA: {P}-dA*dC*dCdGdGdCdAdAdGdCdTdGdCdCdCdGdTdGdCdCdCdTdGdGdCdCdCdAdCdCdCdTdCdTdGdAdCdCdAdCdCdCdTdGdAdCdCdTdAdCdGdGdCdGdTdGdCdAdGdTdGdCdTdTdCdAdGdCdCdGdCdTdAdCdCdCdCdGdAdCdCdAdCdAdTdGdAdAdGdCdAdGdCdAdCdGdA*dC*dT",Avg (% GFP+ cells),[1],38.4%

# Reference: patent publication US10428327B2, “Compositions and methods for enhancing homologous recombination” (LIFE TECHNOLOGIES CORPORATION, priority 2016, dated 2019)
